Patent US20240294622A1 (SUZHOU TRANSCENTA THERAPEUTICS, published 2024)

Tests used:
DAN-his (Sinobiological) = molecular target: T1, DAN-his (Sinobiological) (human, UniProt P41271 17-181, limits assumed); experiment: ELISA on coated DAN-his; unit from the axis Ab(nM); panel called FIG. 19C in the text
T1 construct: also called DAN (Sinobiological); human DAN-his
T1 sequence (looked up): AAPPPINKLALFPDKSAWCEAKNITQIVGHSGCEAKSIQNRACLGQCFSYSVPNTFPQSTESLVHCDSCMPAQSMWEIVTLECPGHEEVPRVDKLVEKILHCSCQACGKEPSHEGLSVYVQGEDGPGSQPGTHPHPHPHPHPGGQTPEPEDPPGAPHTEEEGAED
Procedure: (§1) Clear polystyrene plates (BEAVER) were coated with 100 μl/well of a 0.5 μg/ml human gremlin (ACRO) and DAN (Sinobiological) in high pH coating buffer overnight at 4° C. Then the plates were washed once on an automatic plate washer using PBS+0.1% Tween 20 (Sigma). 100 μl of block solution consisting of PBS+1% BSA+1% normal goat serum+0.5% Tween 20 (Sigma) was added to each well and incubated at room temperature for 2 hours. Then 100 ul of antibodies (hybridoma or chimeric antibody 36F5, chimeric antibody 67G11, chimeric antibody 42B9) in antibody dilution buffer containing PBS+1% BSA+1% normal goat serum+0.01% Tween 20 starting from 2 μg/ml (13.33 nM) and then 4 fold serial dilution were added to each well of the plate and incubated for 1 hours at room temperature. Afterward the plates were washed three times with 200 ul of PBS+0.1% Tween20 followed by adding 100 μl/well 1:10000 Goat anti mouse IgG-HRP or mouse anti-human IgG-HRP (abcam), and incubate for 1 hour at room temperature. They were then washed 3× with PBS+0.1% Tween20. Finally, 100 μl/well of TMB (InnoReagents) was added to each well and after 2 minutes add 50 ul of stop solution to each well. The plates were read on a Multiscan FC microplate reader (Thermo Scientific) at 450 nm.

HGREM1-His (ACRO) = molecular target: T2, HGREM1-His (ACRO) (human, UniProt O60565 25-184); experiment: ELISA on coated human Gremlin-his; unit from the axis Ab(nM); panel called FIG. 19C in the text
T2 construct: Lys25-Asp184 of NP_037504 with C-terminal polyhistidine tag (ACRO GR1-H52H3); they are put here; also called hGREM1 (ACRO); human gremlin (ACRO)
T2 sequence: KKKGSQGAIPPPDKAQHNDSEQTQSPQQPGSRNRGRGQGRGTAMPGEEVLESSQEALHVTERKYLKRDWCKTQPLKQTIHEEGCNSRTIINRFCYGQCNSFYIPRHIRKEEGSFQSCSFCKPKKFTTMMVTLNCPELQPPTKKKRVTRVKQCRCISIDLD
Procedure: as §1

B1: chimeric antibody 67G11 (antibody, human IgG1, V domains shown)
VH: QVQLQQSGAELARPGASVKLSCKASGYTFTSYGIGWVKQRTGQGLEWIGEIYPRSGNTYNNEKFKGKATLTADKSSRTVYMELRSLISEDSAVYFCAREGYSNNYYAMDYWGQGTSVTVFS
VL: DVLMTQTPLSLPVSLGDQASISCRSSQSLVHSNGNTYLEWYLQKPGQSPKLLIYKVSNRFSGVPDRLSGSGSGTDFTLKISRVEAEDLGVYYCFQGSHVPFTFGSGTKLEIK
An EC50 (DAN-his (Sinobiological)) of 0.0178 nM and an EC50 (HGREM1-His (ACRO)) of 0.019 nM were found for B1 in this work.
